The values below come from article PMC12417749.

Where two headings read alike, the source gives them in different places.

What all share (assay): SPR
In assay [1] the target is afucosylated Trastuzumab (TZM‐AF).
The target of assay [2] is galactosylated Trastuzumab (TZM‐GT).
The target of assay [3] is afucosylated Trastuzumab (TZM‐AF). The source holds these as a separate data set.
The target of assay [4] is galactosylated Trastuzumab (TZM‐GT). This is another data set of the same source.

In general, Kd refers to the free concentration of one partner at which half of the binding sites on the other are occupied at equilibrium, for simple one-to-one binding. A low value points to higher affinity. Take “FcγRIIB (from UniProt P31994) (receptor)”: the dissociation constant (Kd) came out at 180 nM in assay [1], 260 nM in assay [2], 170 nM in assay [3] and 220 nM in assay [4]. Moreover, the SPR signal at 300 nM receptor in assay [1] and in assay [2] was 40 RU each time.

With “FcγRIIA (from UniProt P12318) (receptor)”, the dissociation constant Kd in assay [1] worked out at 250 nM; in assay [2] it was 180 nM; in assay [3], 200 nM; in assay [4], 170 nM. Also, the SPR signal at 300 nM receptor in assay [1] and in assay [2] was 40 RU each time.
